Publication PMC12923946 (Cell Reports Medicine, 2026)

Tests used:
RSV-F A2 (DS-Cav-1) = RSV-F A2 (DS-Cav-1) (Human respiratory syncytial virus A, …, UniProt P03420, stabilised); assay: ELISA
hMPV-F A1(NL/1/00) = hMPV-F A1(NL/1/00) (human metapneumovirus A1, strain NL/1/00, UniProt Q91F55, stabilised); assay: ELISA
[1] = biological target: RSV prefusion F trimer (competition assays) (human respiratory syncytial virus A, …, UniProt P03420, stabilised); assay: ELISA
hMPV F-DS-CavEs2-IPDS = biological target: T1, hMPV F-DS-CavEs2-IPDS (human metapneumovirus (strain not …, N-linked glycan at Asn172 (partially modelled))); assay: cryo-EM structure
T1 chain: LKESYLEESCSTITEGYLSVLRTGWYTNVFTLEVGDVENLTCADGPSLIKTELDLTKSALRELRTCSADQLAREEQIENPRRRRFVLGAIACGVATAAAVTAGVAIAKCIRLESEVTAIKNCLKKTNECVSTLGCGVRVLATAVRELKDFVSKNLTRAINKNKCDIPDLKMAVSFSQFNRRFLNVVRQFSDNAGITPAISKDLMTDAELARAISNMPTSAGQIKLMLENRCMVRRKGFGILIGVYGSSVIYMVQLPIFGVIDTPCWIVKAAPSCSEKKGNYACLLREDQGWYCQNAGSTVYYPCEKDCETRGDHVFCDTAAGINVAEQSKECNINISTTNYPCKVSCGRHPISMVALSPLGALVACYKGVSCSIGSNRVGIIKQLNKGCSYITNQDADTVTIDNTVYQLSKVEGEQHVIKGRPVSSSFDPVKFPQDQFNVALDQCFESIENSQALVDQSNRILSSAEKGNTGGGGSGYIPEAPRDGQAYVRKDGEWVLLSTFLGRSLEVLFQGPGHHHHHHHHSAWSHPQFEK

B1: RM 5-1 (antibody, V domains shown)
VH: QGQLVQSGPEVKKPGATVKVSCRASAYPFGNYGITWVRQVPGQGLEWVGWISAYTGHTKFPQNFQGRVTLTADTSTSTGYMELRSLTSDDTAVYYCARGPCCSSPRPYDIWGQGTMVTVSS
VL: DIQMTQSPSTLSASVGDRVTITCRASQSIDDWLAWYQHSPGKAPKLLIYRASRLESGVPSRFSGSGSGTEFTLTISSLQPDDFASYYCQQCYTYSQTFGQGTRVEIK
Question: What does the source list for B1?
Answer: binding result (RSV-F A2 (DS-Cav-1)): binds; binding result (hMPV-F A1(NL/1/00)): binds; binding result [1]: binds

B2: RM 5-1 Fab (Fab, V domains shown)
VH: QGQLVQSGPEVKKPGATVKVSCRASAYPFGNYGITWVRQVPGQGLEWVGWISAYTGHTKFPQNFQGRVTLTADTSTSTGYMELRSLTSDDTAVYYCARGPCCSSPRPYDIWGQGTMVTVSS
VL: DIQMTQSPSTLSASVGDRVTITCRASQSIDDWLAWYQHSPGKAPKLLIYRASRLESGVPSRFSGSGSGTEFTLTISSLQPDDFASYYCQQCYTYSQTFGQGTRVEIK
Question: With B2 as the binder, how does the “stoichiometry N” value (hMPV F-DS-CavEs2-IPDS) read?
Answer: The value was 3 Fabs per trimer.
